Earlier results, collected in patent US8865021B2, “Compositions of lipids and cationic peptides” (Camurus AB, priority 2003, dated 2014).
Residues, ends and D or L forms follow the SMILES beside them. No end group written: not given here.

Conditions: Table 2

Molecule	Isoelectric pH [pH]
Secretin (HSDGTFTSELSRLRDSARLQRLLQGLV; ends and bridges not checked; UniProt P63298 33-59, looked up) [Secretin (e.g. swine), pancreatic assessment, 27 amino acids, reference compound]	9.45
Indolicidin (ILPWKWPWWPWRR; ends and bridges not checked; UniProt P33046 131-143, looked up) [Indolicidin (e.g. bovine), antibacterial, antifungal, anticancer, antiviral, antiparasite]	12.01
Follitropin-beta	5.91
Interleukin-1 receptor antagonist	8.51
IL-1 beta	5.91
Lepirudin	4.04
Tuftsin	11
Calcitonin (salmon) [reference compound]	8.86
Mellitin	12.02
Somatostatin [Somatostatin (& analogues), reference compound]	9.58
Pneumadin	4.36
Tachyplesin I (KWCFRVCYRGICYRRCR; ends and bridges not checked; cysteine pairing not given here; UniProt P14213 24-40, looked up) [antibacterial, antiviral, 17 amino acids]	9.93
IL-18	5.04
IL-6	6.21
IL-1alpha	5.3
IL-13	8.81
Polyphemusin I (RRWCFRVCYRGFCYRKCR; ends and bridges not checked; cysteine pairing not given here; UniProt P14215 1-18, looked up) [antibacterial, antifungal, antiviral]	10.33
Alteplase	7.61
IL-10	7.63
IL-15	4.52
IL-8	9.24
IL-5	7.02
OspA	6.72

Molecule	Isoelectric pH [pH]
NC(=O)CC[C@@H]1NC(=O)[C@H](Cc2ccccc2)NC(=O)[C@H](Cc2ccc(O)cc2)NC(=O)[C@@H](N)CSSC[C@@H](C(=O)N2CCC[C@H]2C(=O)N[C@@H](CCCN=C(N)N)C(=O)NCC(N)=O)NC(=O)[C@H](CC(N)=O)NC1=O [Vassopresin, reference compound]	8.06
Protegrin [Protegrin (e.g. swine)]	10.66
Intercellular Adhesion Molecule 1	9.51
Becaplermin	9.38
Magainin II	10
GMCSF	5.21
IL-17	8.62
Insulin α	3.79
CC[C@H](C)[C@@H]1NC(=O)[C@H](Cc2ccc(O)cc2)NC(=O)[C@@H](N)CSSC[C@@H](C(=O)N2CCC[C@H]2C(=O)N[C@@H](CC(C)C)C(=O)NCC(N)=O)NC(=O)[C@H](CC(N)=O)NC(=O)[C@H](CCC(N)=O)NC1=O [Oxytocin, reference compound]	5.51
Magainin I	10
Somatotropin	5.27
IL-4	9.26
IL-7	8.72
CC(C)[C@@H]1NC(=O)[C@H](CCCNC(=N)N)NC(=O)[C@H](Cc2ccccc2)NC(=O)[C@@H](NC(=O)[C@H](Cc2c[nH]c3ccccc23)NC(=O)[C@H](CCCNC(=N)N)NC(=O)[C@@H](N)CCCNC(=N)N)CSSC[C@@H](C(=O)N[C@@H](CCCNC(=N)N)C(N)=O)NC(=O)[C@H](CCCCN)NC(=O)[C@H](CCCNC(=N)N)NC(=O)[C@H](Cc2ccc(O)cc2)NC(=O)[C@@H]2CSSC[C@H](NC1=O)C(=O)N[C@@H](Cc1ccc(O)cc1)C(=O)N[C@@H](CCCCN)C(=O)NCC(=O)N[C@@H](Cc1ccccc1)C(=O)N2 [Polyphemusin II] (HELM PEPTIDE1{R.R.W.C.F.R.V.C.Y.K.G.F.C.Y.R.K.C.R.[am]}$PEPTIDE1,PEPTIDE1,4:R3-17:R3|PEPTIDE1,PEPTIDE1,8:R3-13:R3$$$V2.0)	10.1
IL-24 (protein, UniProt Q13007 52-206, looked up, Melanoma differentiation associated protein 7) Interleukin-24: QEFHFGPCQVKGVVPQKLWEAFWAVKDTMQAQDNITSARLLQQEVLQNVSDAESCYLVHTLLEFYLKTVFKNYHNRTVEVRTLKSFSTLANNFVLIVSQLQPSQENEMFSIRDSAHRRFLLFRRAFKQLDVEAALTKALGEVDILLTWMQKFYKL	8.6
Filgrastim (protein, UniProt P09919 31-207, looked up, N-terminal methionine, non-glycosylated, neutropenia) Granulocyte …: TPLGPASSLPQSFLLKCLEQVRKIQGDGAALQEKLVSECATYKLCHPEELVLLGHSLGIPWAPLSSCPSQALQLAGCLSQLHSGLFLYQGLLQALEGISPELGPTLDTLQLDVADFATTIWQQMEELGMAPALQPTQGAMPAFASAFQRRAGGVLVASHLQSFLEVSYRVLRHLAQP	5.43
Interferon-alpha 1/13 (protein, UniProt P01562 24-189, looked up) Interferon alpha-1/13: CDLPETHSLDNRRTLMLLAQMSRISPSSCLMDRHDFGFPQEEFDGNQFQKAPAISVLHELIQQIFNLFTTKDSSAAWDEDLLDKFCTELYQQLNDLEACVMQEERVGETPLMNADSILAVKKYFRRITLYLTEKKYSPCAWEVVRAEIMRSLSLSTNLQERLRRKE	5.18
IL-26 (protein, UniProt Q9NPH9 22-171, looked up) Interleukin-26: KHKQSSFTKSCYPRGTLSQAVDALYIKAAWLKATIPEDRIKNIRLLKKKTKKQFMKNCQFQEQLLSFFMEDVFGQLQLQGCKKIRFVEDFHSLRQKLSHCISCASSAREMKSITRMKRIFYRIGNKGIYKAISELDILLSWIKKLLESSQ	9.99
human Chorionic Gonadotropin-beta (protein, UniProt P0DN86 21-165, looked up, Infertility) Choriogonadotropin subunit …: SKEPLRPRCRPINATLAVEKEGCPVCITVNTTICAGYCPTMTRVLQGVLPALPQVVCNYRDVRFESIRLPGCPRGVNPVVSYAVALSCQCALCRRSTTDCGGPKDHPLTCDDPRFQDSSSSKAPPPSLPSPSRLPGPSDTPILPQ	8.65
IL-11 (protein, UniProt P20809 22-199, looked up) Interleukin-11: PGPPPGPPRVSPDPRAELDSTVLLTRSLLADTRQLAAQLRDKFPADGDHNLDSLPTLAMSAGALGALQLPGVLTRLRADLLSYLRHVQWLRRAGGSSLKTLEPELGTLQARLDRLLRRLQLLMSRLALPQPPPDPPAPPLAPPSSAWGGIRAAHAILGGLHLTLDWAVRGLLLLKTRL	11.16
IL-19 (protein, UniProt Q9UHD0 25-177, looked up, Melanoma differentiation associated protein-like protein) Interleukin-19: LRRCLISTDMHHIEESFQEIKRAIQAKDTFPNVTILSTLETLQIIKPLDVCCVTKNLLAFYVDRVFKDHQEPNPKILRKISSIANSFLYMQKTLRQCQEQRQCHCRQEATNATRVIHDNYDQLEVHAAAIKSLGELDVFLAWINKNHEVMFSA	7.8
Interferon-gamma (protein, UniProt P01579 24-161, looked up) Interferon gamma: QDPYVKEAENLKKYFNAGHSDVADNGTLFLGILKNWKEESDRKIMQSQIVSFYFKLFKNFKDDQSIQKSVETIKEDMNVKFFNSNKKKRDDFEKLTNYSVTDLNVQRKAIHELIQVMAELSPAAKTGKRKRSQMLFRG	9.54

Same assay, conditions: approximate values

Molecule	isoelectric point
Lepirudin	around 4 pH
Calcitonin (salmon) [reference compound]	~8.9 pH
NC(=O)CC[C@@H]1NC(=O)[C@H](Cc2ccccc2)NC(=O)[C@H](Cc2ccc(O)cc2)NC(=O)[C@@H](N)CSSC[C@@H](C(=O)N2CCC[C@H]2C(=O)N[C@@H](CCCN=C(N)N)C(=O)NCC(N)=O)NC(=O)[C@H](CC(N)=O)NC1=O [Vassopresin, reference compound]	around 8.0 pH
octreotide [reference compound]	around 8.0 pH
Insulin α	around 4 pH

Conditions: salmon vs human calcitonin

Molecule	potency by weight relative to the human hormone
Calcitonin (salmon) [reference compound]	around 50 times
